Broadly, the stoichiometry N is a count of units in the complex or per binding partner.

Here are results for two substances from publication PMC7881039.

The target of test [1] is human cystatin C (Cst-3), E. coli expressed (human) (UniProt P01034). Kind of test: SEC; gel permeation on Superdex 200 in 20 mM Tris, 150 mM NaCl, pH 7.1, after cation exchange; monomer and dimer told by elution. In general terms: In gel filtration, larger molecules generally elute earlier.
In test [2] the target is papain (UniProt P00784).
Sequence of UniProt P00784 (P00784 134-345): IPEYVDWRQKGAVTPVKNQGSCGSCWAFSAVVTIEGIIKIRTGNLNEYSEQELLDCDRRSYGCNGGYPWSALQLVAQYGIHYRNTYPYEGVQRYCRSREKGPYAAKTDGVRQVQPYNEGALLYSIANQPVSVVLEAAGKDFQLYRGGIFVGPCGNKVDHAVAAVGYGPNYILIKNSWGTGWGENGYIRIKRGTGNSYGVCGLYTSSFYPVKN

Take “human cystatin C (Cst-3), E. coli expressed (from UniProt P01034 27-146) (natural protein)”: in test [1], the stoichiometry N stood at 2.

The substance “murine cystatin C (Cst-3), E. coli expressed (from UniProt P21460 21-140) (natural protein)” yielded an inhibition of papain activity (colorimetric peptide substrate Z-Phe-Arg-pNA, pH 5.5) by 60 nM Cst-3 preincubated with equimolar heparin or HS hexasaccharide, against apo Cst-3 in test [2] of 80%.
